These results are taken from patent publication US7951917 (Genentech, dated 2011).

This experiment addresses T1, human thrombopoietin receptor, c-Mpl (human, UniProt P40238 26-491).
T1 construct: extracellular domain; Antigen of the library panning; also called MPL (human thrombopoietin receptor tyrosine kinase ECD)
T1 sequence (looked up): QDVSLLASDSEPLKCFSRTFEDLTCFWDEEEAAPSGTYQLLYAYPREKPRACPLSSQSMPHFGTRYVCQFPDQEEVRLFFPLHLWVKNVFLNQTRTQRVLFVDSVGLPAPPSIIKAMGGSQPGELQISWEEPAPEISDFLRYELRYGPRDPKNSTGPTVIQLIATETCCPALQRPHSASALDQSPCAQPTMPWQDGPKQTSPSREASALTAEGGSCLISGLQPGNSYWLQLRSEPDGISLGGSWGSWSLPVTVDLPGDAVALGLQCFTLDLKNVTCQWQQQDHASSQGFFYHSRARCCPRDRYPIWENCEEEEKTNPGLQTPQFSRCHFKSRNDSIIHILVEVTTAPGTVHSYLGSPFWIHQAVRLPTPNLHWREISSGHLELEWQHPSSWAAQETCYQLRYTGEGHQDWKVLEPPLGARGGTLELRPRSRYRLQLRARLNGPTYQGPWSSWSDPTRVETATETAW
As to the kind of experiment: scFv from panning of a human scFv phage library.

B1: anti-Mpl scFv, 12B5 (scFv)
scFv: QVQLVQSGGGLVRPGGSLSLSCAVSGITLRTYGMHWVRQAPGKGLEWVAGISFDGRSEYYADSVQGRFTISRDSSKNTLYLQMNSLRAEDTAVYYCARGAHYGFDIWGQGTMVTVSSGGGGTGGGGSGGGGSDIQMTQSPSTLSASIGDRVTITCRASEGIYHWLAWYQQKPGKAPKLLIYKASSLASGAPSRFSGSGSGTDFTLTISSLQPDDFATYYCQQYSNYPLTFGGGTKLEIK
Take B1: the binding result was “binds”.
